Assay: protease stability score; higher = more stable; yeast display proteolysis, trypsin and chymotrypsin;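 also: log10 excess protease needed over predicted unfolded state with 0 meaning unfolded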
Sequence “DEKQVVKVAKRVVQAVFEGDEELMKKMGKEDVEVEVGDTKYKGVDQAVDLVRKYKEFGLEFELKKYEVKGDTVTFHAKLYAGDKTIDVTVHYRADDGKMDETKVELSEEADKAFKQH” has a protease stability score of 1.1. Sequence “EKEQKERLEEAQHARESGDTERLKDLFDENVQVEVGDKRVNGMEKFVKDEVKKQRDLRISVTYTEMRNDPNHVDITVEVVEDKNGEPQRRVLEINIEYENGRARMMRVRRVQ” has a protease stability score of 1.1. With “DEEAEKRFEELMENRKTGNEHDVSEYADPNVTARIGDHEVRGREQLHDLQRKEKEEMRVDIKDYRLDFNGDTVRVEVHLEDEHNGRPRDRHQSNSFRWQNGKLKELHIRSDK” the protease stability score was -0.353. Sequence “DQKDAKRATEILKNLQEGDWSEVVRQADPNAEIKVGDKVYNGMEHYAEHMHRKVEHSRIRIEVETVKDHNGVIHIKFHIEYKVNGHPRSNTQNINFYLNNGKVRSIDVQVPEEDLEKEHK” has a protease stability score of 0.252. In the case of “DDDKIRKDAETFVKILETGNQERAQRMFDENAHMRIGDKTYHGRESVHKAIKTIRDEVDHVQVRHIDIQGEEVIIQMRFDHNGNQDIMTINLVIKNGRIKSATYTRP”, the protease stability score is reported as 0.537. For “DDEDKAREFQRHLLRLVRTNNEKDLHNMADPNVKVVIGDKVYSGRDDVAKAHAELRRNVDHINLEIKSVSHKNGRMKVEAEVIYDHNGKKDKRTMTAVIDRHNGKNVLVHMNIQ”, the protease stability score was 1.65. In the case of “DERQLDLLRQFLHAVQHGDEDRLKELADPNAKFTVGDKTIHGMNTFARTVKRRRDQARFQYNVKSMEADGDKMEVRIQLHVDVNGRPINVEFTARAHVDGDKLKSLELRIPEEVLKKQES”, the protease stability score is reported as 0.037. In the case of “DETDKAHEFMRKMKRALDQNDPDKLMDLFDPNAKVKVGEKKIHGRERISNDLQRHAHNADHIHMEIQDMKVSGDKINITFRVTSVVNGNTRSNRVLIRARIDNGHIKAVDVQQK”, the protease stability score is reported as 0.855. With “DDRDEEKLQEQRKIHENNDEDRRKELVDPNVKFDVGDRHYHGRETNSKKFVDENREMRVEVDIKRVTNDEDHLRFEAHVVIRNNGQPDTKKVRLEQRLDGDKLKMERQEDKR” the protease stability score was 0.276. Work on “DEEAEKLAREFIKAVQTGDEEELNELMDPNARFRIGNKTFHGMTNAAKEFNDKRREAHIEYHITSIRVSGDHVEVKVEVHVNVNGKPVHNEVTMDFKRHNGRIRDFQVQIDEEDQKKQDK” yielded a protease stability score of 1.29. Sequence “DERAKEQMKNFQQAVSEGDPDQFRELMDKDARMVIGDQQLHGREKMMHQWQRLTRRIRREVKSVDVQVRGDTAELDIHFEQRKDGQPTKNSAVLEAVVHNGKVKELRVKNKR” has a protease stability score of 0.078. Sequence “DETVEELIKRFMRAIKNNNPDELVRNADKDAKYDIGDKTIHGREQLHDHVEHLRDEMQIDYEVENLKVHNGRADVDVKNNNNHNGRPETKRLRLDVVVHNGKIKDVKFQDTR” has a protease stability score of 0.243. Sequence “DDDDLKRITEFLKNEQKGNSEELRKLADPNATFQIGDKTIKGRDKFANEAKKRRDEMHFQYKSVHMRDHNGVAVFSVTWILDHNGKPEENTFTLQAKLTNGKIKMLRLQSRK” has a protease stability score of -0.012. “DHELENLVEKIMSALTRNNPEDIRSLFDPNARFNIGDKTWNGMDRYITELKKEVDEWDMSVELHSVDIQGNKASAHVEQTAHHDGEPDSFEYTMKLDFHNGKARRQRVNSRK” showed a protease stability score of -0.248. For “DNDRVRKAHKLMRVIETGDPDKVNEYVDPNVHVEYGDKTIHGREELKKFIEKERHEMRVELKRVSADATGNKVDIKVHRVLDKNGKPETNNVRIIIVWDGNKIKSVSFQKDK”, the protease stability score was 0.849. With “DEELLKEWETLVEDNNEQDLSKMADEDARVNVGDKHYHGRENVEKFITTLAQRIDRIDIKTVDNDGEKVRIDMIAKFNGHQLRVVLEMQAHNGRVKVINARATNEDQEKLWKDLVD” the protease stability score was 0.798. Work on “DPKKMKEIADKMAKAVLNGNEEEVKKFGAPNVEAEVADQRTQGVDEIVKMLQKVKRMGMEVHTEEKREEGDFIEVHTKYRRGDTEATMTVQYYADNGKVKKIKVEYDRDAKKLFKHG” yielded a protease stability score of 0.232. “DQDRLEEVRRRMTTGNPDDLRNLMDEDVTVQYGDKEVHGRDEAVDRLEKLLRQVDHLRIDSMDAHGDEFNVHLSAVVNGRQVNFVVSLRIHNGKIKHFMQQATDEDQQKRLEHAWD” showed a protease stability score of 1.23. Sequence “DEKKVHEVLKKLRKALEQGNVDEMVKMGKPDVEFHFFDTKIEGLDQLHEYYKTMKDHGAELHVEETKVEGNKVEVVYVLKLGGTQVKVTAQIEIKDERVVRARAENTEEYKKRVKKG” has a protease stability score of 0.359. For “DEHLVEKVEEFLQNLQNNNEEEIQKQVDPNAKIDVGDKTVDGREEANKWAEELKDESRFEIKDVKYESHNGRVRANFTAQVDHNGRPETRKYDITFNWHDGVIKHIDNKTTS”, the protease stability score was 0.403.
